Assays:
[1] = target: N-terminal monomer (Aβ monomer coupled at the amino terminus) (UniProt P05067); experiment: SPR, biotin-tagged Aβ on Neutravidin sensor (N-terminal monomer sensor)
[2] = target: biotinylated Aβ oligomer bound to Neutravidin (Aβ42 oligomer SPR sensor) (UniProt P05067); experiment: SPR, biotin-tagged Aβ on Neutravidin sensor (Oligomer sensor)
[3] = target: C-terminal monomer (Aβ monomer coupled at the carboxyl terminus) (UniProt P05067); experiment: SPR, biotin-tagged Aβ on Neutravidin sensor (C-terminal monomer sensor)
C-terminal monomer (Aβ monomer coupled at the carboxyl terminus), sequence (P05067 672-713): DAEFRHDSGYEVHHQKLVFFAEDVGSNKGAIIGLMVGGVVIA

[4] = target: globular Aβ oligomer (Aβ42 oligomers) on ELISA plates (UniProt P05067); experiment: ELISA, best fit of curves, blank plate against Aβ oligomer plate
globular Aβ oligomer (Aβ42 oligomers) on ELISA plates, sequence (P05067 672-713 limits assumed): as the sequence (P05067 672-713) above

[5] = target: Aβ monomer peptide (Aβ42 Peptide Monomer) on ELISA plates (UniProt P05067); experiment: ELISA, best fit of curves, blank plate against Aβ monomer plate
Aβ monomer peptide (Aβ42 Peptide Monomer) on ELISA plates, sequence (P05067 672-713 limits assumed): as the sequence (P05067 672-713) above

[6] = target: globular Aβ oligomer (Aβ42 oligomers) on ELISA plates (UniProt P05067); experiment: ELISA, Aβ oligomer plate, fitted maximum
[7] = target: Aβ monomer peptide (Aβ42 Peptide Monomer) on ELISA plates (UniProt P05067); experiment: competition ELISA on Aβ monomer plates, IVIG in 3-fold dilutions from 1 mg/ml, competitor thyroglobulin 40 µg/ml
[8] = target: Aβ monomer peptide (Aβ42 Peptide Monomer) on ELISA plates (UniProt P05067); experiment: ELISA, Aβ monomer plate, fitted maximum
Aβ fibril (Aβ42 fibril) [9] = target: Aβ fibril (Aβ42 fibril) (UniProt P05067); experiment: ELISA half-max titer, Aβ fibril plate against blank plate
Aβ fibril (Aβ42 fibril), sequence (P05067 672-713 limits assumed): as the sequence (P05067 672-713) above

Aβ fibril (Aβ42 fibril) [10] = target: Aβ fibril (Aβ42 fibril) (UniProt P05067); experiment: ELISA, Aβ fibril plate, fitted maximum
[11] = target: Aβ monomer peptide (Aβ42 Peptide Monomer) on ELISA plates (UniProt P05067); experiment: ELISA half-max titer, Aβ monomer plate against blank plate
[12] = target: globular Aβ oligomer (Aβ42 oligomers) on ELISA plates (UniProt P05067); experiment: ELISA on globular Aβ oligomer plates with chaotropic salt elution (avidity); this end, printed '>4M', is untreated IVIG (50% not reached at 4M, the highest concentration used)
[13] = target: globular Aβ oligomer (Aβ42 oligomers) on ELISA plates (UniProt P05067); experiment: ELISA, Aβ oligomer plate, typical half maximum titer
[14] = target: Aβ monomer peptide (Aβ42 Peptide Monomer) on ELISA plates (UniProt P05067); experiment: ELISA, Aβ monomer plate, typical half maximum titer
Aβ fibril (Aβ42 fibril) [15] = target: Aβ fibril (Aβ42 fibril) (UniProt P05067); experiment: ELISA, best fit of curves, blank plate against Aβ fibril plate
Aβ fibril (Aβ42 fibril) [16] = target: Aβ fibril (Aβ42 fibril) (UniProt P05067); experiment: ELISA, Aβ fibril plate, typical half maximum titer
[17] = target: globular Aβ oligomer (Aβ42 oligomers) on ELISA plates (UniProt P05067); experiment: ELISA half-max titer, Aβ oligomer plate against blank plate

biotinylated Aβ oligomer bound to Neutravidin (Aβ42 oligomer SPR sensor), sequence (P05067 672-713 limits assumed): as the sequence (P05067 672-713) above
N-terminal monomer (Aβ monomer coupled at the amino terminus), sequence (P05067 672-713): as above

With 6E10 monoclonal anti-Aβ antibody the Kd [1] was 0.158 µM, the Kd [2] was 0.069 µM and the Kd [3] was 0.047 µM.

“intravenous immunoglobulin (IVIG; Gammagard Liquid, Baxter) (antibody)” gave a fold by which maximum binding on blank plates exceeds that on the amyloid plate [4] of 1.6 fold, a fold by which maximum binding on blank plates exceeds that on the amyloid plate [5] of 1.6 fold and a maximum binding value (A450 nm units) [6] of 2.88. The percent of control binding in presence of competitor [7] was 50%, the maximum binding value (A450 nm units) [8] was 2.7 and the fold by which the blank plate half maximum binding titer is lower than the titer on this plate (Aβ fibril (Aβ42 fibril) [9]) was 6.5 fold. For the same substance, the maximum binding value (A450 nm units) (Aβ fibril (Aβ42 fibril) [10]) was 2.82, the fold by which the blank plate half maximum binding titer is lower than the titer on this plate [11] was 17.6 fold and the ammonium thiocyanate concentration for 50% maximal binding [12] was 4 M. It also gave a half maximum titer [13] of 9.42, a half maximum titer [14] of 42.8 and a fold by which maximum binding on blank plates exceeds that on the amyloid plate (Aβ fibril (Aβ42 fibril) [15]) of 1.6 fold. The half maximum titer (Aβ fibril (Aβ42 fibril) [16]) was 15.8 and the fold by which the blank plate half maximum binding titer is lower than the titer on this plate [17] was 3.9 fold.
